The record followed here is patent US20230250170A1 (Regeneron, published 2023).

Sequences and labels used below:
B1: H4H22034 (antibody, human IgG4 S228P, kappa, V domains shown)
VH: EVQLLESGGDLVQPGGSLRLSCAASGFTFSDYAMIWVRQTPGKGLEWVSGISGGGGSTDYADSVKGRFTTSRDNVKNAMYLQMNSLRTEDTAVYYCAREDQLPSYHNYYGMDVWGQGTTVTVSS
VL: DIQMTQSPSSVSASVGDRVTITCRASQGINNYLAWFQQKPGKAPKSLIYGASSLQSGVPSKFSGSRSGIDFTLTISSLQPEDFATYYCQQYNSYPYTFGQGTKLEIKR
notes: also called H4H22034N; mAb22034
B2: REGN7548 (antibody, human IgG4 S228P, kappa, V domains shown)
VH: QVQLVQSGAEVKKPGASVKVSCKASGYTFTSYYIHWVRQAPGQGLEWMGIISPSDGYTSYAQNFQGRVTMTRDTSTNTVYMDLSSLRSEDTAMFYCARNDPLTTVALDYWGQGTLVTVSS
VL: AIQMTQSPSSLSASVGDRVTITCRASQGIRYDLGWFQQKPGKAPKLLIHAASSLQSGVPSRFSGSGSGTDFTLTISSLQPEDFATYYCLQDYNYPFTFGQGTKLEIKR
notes: also called mAb38090
B3: REGN7541 (antibody, human IgG4 S228P, kappa, V domains shown)
VH: EVQLVESGGGLVQPGGSLRLSCAASGFTFSSYAMSWVRQAPGKGLEWVSTISGSGTNTYYADSVKGRFTISNDNSKNTLYLQMNSLRAEDTAVYYCANYDILTGHSFEYWGQGTLVTVSS
VL: AIQMTQSPSSLSASVGDRVTITCRASQGIRNDLGWYQQKPGKAPELLIYAASRLPSGVPLRFSGSGSGTDFTLTISSLQPEDVATYYCLQDYNYPFTFGPGTKVDIKR
notes: also called mAb38067
B4: REGN7544 (antibody, human IgG4 S228P, kappa, V domains shown)
VH: EVQLVESGGGLVQPGGSLRLSCAASGFSFVSYVMGWVRQAPGKGLEWVSSISGSLTNTYYADPVKGRFTISRDNSKNTLYLQMNSLRAEDTAAYYCVTYDILTGHLFDYWGQGTLVTVSS
VL: B3 VL with A25S, L33F, E45K, P55Q, L60S, S76N, S77N, V83F, N93T
notes: also called mAb38072

Changes are numbered by the printed parent chain.

For one experiment, the target named is T1, monkey (Macaca fascicularis) NPR1 on HEK293/mfNPR1 cells (monkey (Macaca fascicularis)).
T1 construct: whole, on cells; No ligand added
As to the kind of experiment: ECL cell-binding immunoassay (MSD), HEK293/mfNPR1, no ligand added. On the procedure: (§1) Cultures of the cell lines described above were rinsed once in 1×PBS buffer without Ca²⁺/Mg²⁺ and incubated for 10 minutes at 37° C. with Enzyme Free Cell Dissociation Solution to detach cells from the flask. The collected cell pellets were washed once with and resuspended in 1×PBS with Ca²⁺/Mg²⁺ and then cells were counted with a Cellometer™ Auto T4 cell counter (Nexcelom Bioscience, Lawrence, Mass.). Approximately 2.0×10⁴ cells per well were seeded onto 96-well carbon electrode plates (Meso Scale Diagnostics, Rockville, Md.) and incubated for 1 hour at 37° C. Nonspecific binding sites were blocked using 2% BSA (w/v) in 1×PBS containing Ca²⁺/Mg²⁺ for 1 h at room temperature. Subsequently, HEK293/hNPR1 and HEK293/mfNPR1 cells were incubated for 0.5 hour at room temperature with 10 nM hANP (Tocris, Minneapolis, Minn.), 100 nM hBNP (Tocris, Minneapolis, Minn.), or sample dilution buffer alone, while HEK293 cells were treated with sample dilution buffer only. Without washing, serial dilutions of anti-NPR1, Comparator 1 or the isotype control antibody, ranging from 1.7 pM to 100 nM, or buffer containing no antibody were added to the cells followed by 1 hour incubation at room temperature. Plates were then washed to remove unbound antibodies, hANP, and hBNP using an AquaMax2000 plate washer with a cell washing head (MDS Analytical Technologies, Sunnyvale, Calif.). The plate-bound antibodies were detected with a SULFO-TAG™-conjugated polyclonal goat anti-human IgG antibody specific for heavy and light chains (Jackson Immunoresearch, West Grove, Pa.) that was incubated with the cells for 1 hour at room temperature.
(§2) After washes, plates were developed with Read Buffer (Meso Scale Diagnostics, Rockville, Md.) according to manufacturer's recommended procedure and luminescent signals were recorded with a SECTOR Imager 600 (Meso Scale Diagnostics, Rockville, Md.). The binding signals in a unit of RLU were analyzed as a function of the antibody concentration and data were fitted with a sigmoidal (four-parameter logistic) dose-response model using R statistical package (open source).
With B1, it took 0.33 nM to reach a half-maximal effect (EC50).

For B2, the response was half-maximal at 0.56 nM (EC50).

For the molecule B3, the concentration giving a half-maximal response (EC50) (as a rule, the concentration giving half of the maximal effect) was 1.4 nM.

B4 registered an EC50 of 1.7 nM.

The target of the next experiment is T2, monkey NPR1 on HEK293/mfNPR1 cells in the presence of 10 nM hANP (monkey (Macaca fascicularis); human).
T2 construct: also called HEK293/mfNPR1 +10 nM hANP
T2 sequence (P01160 124-151): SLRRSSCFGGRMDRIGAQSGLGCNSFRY
As to the kind of experiment: ECL cell-binding immunoassay (MSD), HEK293/mfNPR1, +10 nM hANP. The method, then:
as §1, §2
With B1, the EC50 came out at 0.67 nM.

For the molecule B2, the EC50 stood at 1.2 nM.

For B3, the EC50 was determined as 2.9 nM.

For B4, the EC50 is 4.2 nM.

The target of a further experiment is T3, dog NPR1 extracellular domain expressed with a C-terminal myc-myc-hexahistidine (dog).
T3 chain: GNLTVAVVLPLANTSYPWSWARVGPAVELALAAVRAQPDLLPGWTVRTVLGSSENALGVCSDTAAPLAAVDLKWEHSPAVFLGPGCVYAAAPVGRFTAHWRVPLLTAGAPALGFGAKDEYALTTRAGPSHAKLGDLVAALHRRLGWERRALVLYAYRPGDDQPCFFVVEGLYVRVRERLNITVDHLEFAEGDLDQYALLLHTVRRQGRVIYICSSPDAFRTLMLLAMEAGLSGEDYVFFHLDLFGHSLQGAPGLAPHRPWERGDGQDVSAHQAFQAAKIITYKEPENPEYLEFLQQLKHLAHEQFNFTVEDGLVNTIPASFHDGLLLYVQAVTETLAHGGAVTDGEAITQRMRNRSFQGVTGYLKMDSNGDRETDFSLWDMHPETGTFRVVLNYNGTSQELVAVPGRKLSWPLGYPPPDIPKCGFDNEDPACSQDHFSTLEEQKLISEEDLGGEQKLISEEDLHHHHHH
Description: SPR Biacore 8K, mAb captured via anti-hFc, 25 C. The method, then:
(§3) The equilibrium dissociation constant (KD) for different NPR1 reagents binding to purified anti-NPR1 monoclonal antibodies (mAbs) were determined using a real-time surface plasmon resonance (SPR) based Biacore 8k biosensor. All binding studies were performed in 10 mM HEPES, 150 mM NaCl, 3 mM EDTA, and 0.05% v/v Surfactant P20, pH 7.4 (HBS-EP) running buffer at 25° C. and 37° C. The Biacore CM5 sensor chip surface was first derivatized by amine coupling with anti-human Fc specific antibody to capture anti-NPR1 mAbs. Binding studies were performed on human NPR1 extracellular domain expressed with a C-terminal myc-myc-hexahistidine (hNPR1-MMH; SEQ ID NO:74), monkey NPR1 extracellular domain expressed with a C-terminal myc-myc-hexahistidine (mfNPR1-MMH; SEQ ID NO:75), mouse NPR1 extracellular domain expressed with a C-terminal myc-myc-hexahistidine (mNPR1-MMH; SEQ ID NO:76), dog NPR1 extracellular domain expressed with a C-terminal myc-myc-hexahistidine (dog_NPR1-MMH; SEQ ID NO:77), pig NPR1 extracellular domain expressed with a C-terminal myc-myc-hexahistidine (pig_NPR1-MMH; SEQ ID NO:78), and hNPR1-MMH+10×hANP.
(§4) Different concentrations (40 nM-0.625 nM, 4-fold serial dilutions) of hNPR1-MMH, mfNPR1-MMH, hNPR1-MMH in the presence of 10-fold concentration of hANP, or a fixed concentration (40 nM) of mNPR1-MMH, dog_NPR1-MMH, pig_NPR1-MMH were prepared in HBS-EP running buffer, and then injected for 150 sec at a flow rate of 30 μL/min, while the dissociation of mAb bound different NPR1 reagents was monitored for 30 minutes in HBS-EP running buffer. At the end of each cycle, the anti-NPR1 mAb capture surface was regenerated using a 12 sec injection of 10 mM phosphoric acid. The association rate (ka) and dissociation rate (kd) were determined by fitting the real-time binding sensorgrams to a 1:1 binding model with mass transport limitation using Biacore insight evaluation software. Binding dissociation equilibrium constant (KD) and dissociative half-life (t½) were calculated from the kinetic rates as: […]
A general note: SPR reads the build-up and loss of mass on a sensor chip optically.
B1: the “40 nM Ag Bound (RU)” value turned out to be 0 RU and the binding result was “no binding (tested: 40 nM)”.

B2: the “40 nM Ag Bound (RU)” value was 0 RU and the binding result is recorded as “no binding (tested: 40 nM)”.

Regarding B3, the “40 nM Ag Bound (RU)” value was found to be 0 RU and the binding result is given as “no binding (tested: 40 nM)”.

Consider B4, for which the “40 nM Ag Bound (RU)” value amounted to 0 RU and the binding result is on record as “no binding (tested: 40 nM)”.

A further experiment addresses T4, pig NPR1 extracellular domain expressed with a C-terminal myc-myc-hexahistidine (pig).
T4 chain: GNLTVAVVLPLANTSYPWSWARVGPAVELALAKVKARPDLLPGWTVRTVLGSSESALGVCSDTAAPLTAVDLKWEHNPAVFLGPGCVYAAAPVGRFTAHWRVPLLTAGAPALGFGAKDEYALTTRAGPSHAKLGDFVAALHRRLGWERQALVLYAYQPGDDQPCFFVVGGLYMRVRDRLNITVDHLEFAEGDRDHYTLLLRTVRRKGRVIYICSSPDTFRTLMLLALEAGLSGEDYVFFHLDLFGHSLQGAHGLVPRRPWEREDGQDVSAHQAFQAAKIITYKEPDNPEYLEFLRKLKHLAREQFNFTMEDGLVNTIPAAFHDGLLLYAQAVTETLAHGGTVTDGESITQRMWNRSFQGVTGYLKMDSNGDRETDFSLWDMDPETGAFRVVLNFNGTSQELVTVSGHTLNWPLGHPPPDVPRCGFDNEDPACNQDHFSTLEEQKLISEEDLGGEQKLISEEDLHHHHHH
As to the kind of experiment: SPR Biacore 8K, mAb captured via anti-hFc, 25 C. On the procedure: as §3, §4
In the case of B1, the “40 nM Ag Bound (RU)” value came to 0 RU.

Consider B2, for which the “40 nM Ag Bound (RU)” value was 11 RU; the Kd (in general, the constant that tells how readily two partners part at equilibrium) was 35.8 nM; the koff (as a rule, a measure of how fast the partners let go of each other) was 0.00427 s⁻¹; the kon (in general, the second-order rate constant of association) turned out to be 119000 M⁻¹ s⁻¹. For the same molecule, the t½ (as a rule, the time needed for the level to fall by half in the phase considered) was found to be 2.7 min.

On to B3, for which the “40 nM Ag Bound (RU)” value was determined as 0 RU.

For B4, the “40 nM Ag Bound (RU)” value was 2 RU, the Kd was determined as 122 nM, the koff stood at 0.00679 s⁻¹ and the kon came out at 55800 M⁻¹ s⁻¹. The t½ is 1.7 min.

The next experiment concerns the target T5, mouse NPR1 extracellular domain expressed with a C-terminal myc-myc-hexahistidine (mouse, UniProt P18293 29-469).
T5 construct: also called mNPR1-MMH
Description: SPR Biacore 8K, mAb captured via anti-hFc, 25 C. The method, then:
as §3, §4
Turning to B1, the “40 nM Ag Bound (RU)” value came to 0 RU and the binding result is reported as “no binding (tested: 40 nM)”.

Take B2: the “40 nM Ag Bound (RU)” value is 0 RU and the binding result is “no binding (tested: 40 nM)”.

On to B3, for which the “40 nM Ag Bound (RU)” value came out at 0 RU and the binding result is on record as “no binding (tested: 40 nM)”.

On to B4, for which the “40 nM Ag Bound (RU)” value was determined as 0 RU and the binding result is listed as “no binding (tested: 40 nM)”.

The next experiment concerns the target T3, dog NPR1 extracellular domain expressed …. As to the kind of experiment: SPR Biacore 8K, mAb captured via anti-hFc, 37 C. On the procedure:
as §3, §4
In the case of B1, the “40 nM Ag Bound (RU)” value stood at 0 RU.

Regarding B2, the “40 nM Ag Bound (RU)” value amounted to 0 RU.

Take B3: the “40 nM Ag Bound (RU)” value is 0 RU.

As for B4, the “40 nM Ag Bound (RU)” value was 0 RU.

The next experiment deals with T4, pig NPR1 extracellular domain expressed …. Description: SPR Biacore 8K, mAb captured via anti-hFc, 37 C. The method, then:
as §3, §4
As for B1, the “40 nM Ag Bound (RU)” value was determined as 0 RU and the binding result is recorded as “no binding (tested: 40 nM)”.

Take B2: the “40 nM Ag Bound (RU)” value stood at 14 RU, the Kd was found to be 42.1 nM, the koff turned out to be 0.00927 s⁻¹ and the kon amounted to 220000 M⁻¹ s⁻¹. For the same molecule, the t½ came to 1.2 min.

As to B3, the “40 nM Ag Bound (RU)” value was found to be 0 RU and the binding result is given as “no binding (tested: 40 nM)”.

On to B4, for which the “40 nM Ag Bound (RU)” value was 5 RU, the Kd was found to be 98.1 nM, the koff came out at 0.00947 s⁻¹ and the kon worked out at 96500 M⁻¹ s⁻¹. The t½ turned out to be 1.2 min.

Another experiment addresses T5, mouse NPR1 extracellular domain …. As to the kind of experiment: SPR Biacore 8K, mAb captured via anti-hFc, 37 C. On the procedure:
as §3, §4
Target sequence in this assay (P18293 other isoform, or with tags, fused parts or gaps): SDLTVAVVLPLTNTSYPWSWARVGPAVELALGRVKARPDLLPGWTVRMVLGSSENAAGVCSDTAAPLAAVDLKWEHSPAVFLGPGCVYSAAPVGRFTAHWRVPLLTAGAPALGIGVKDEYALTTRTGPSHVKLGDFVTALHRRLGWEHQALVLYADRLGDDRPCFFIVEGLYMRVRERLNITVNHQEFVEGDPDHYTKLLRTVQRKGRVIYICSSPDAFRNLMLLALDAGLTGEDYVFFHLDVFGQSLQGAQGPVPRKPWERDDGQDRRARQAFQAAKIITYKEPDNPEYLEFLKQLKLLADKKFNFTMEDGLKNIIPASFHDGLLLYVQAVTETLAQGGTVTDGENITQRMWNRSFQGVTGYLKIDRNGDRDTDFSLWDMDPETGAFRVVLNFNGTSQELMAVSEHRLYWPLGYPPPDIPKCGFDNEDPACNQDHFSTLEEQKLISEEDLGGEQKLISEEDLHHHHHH
As to B1, the “40 nM Ag Bound (RU)” value was found to be 0 RU.

In the case of B2, the “40 nM Ag Bound (RU)” value came to 0 RU.

As for B3, the “40 nM Ag Bound (RU)” value was determined as 0 RU.

On to B4, for which the “40 nM Ag Bound (RU)” value is 0 RU.

The target of a further experiment is T6, monkey NPR1 on HEK293/mfNPR1 cells in the presence of 100 nM hBNP (monkey (Macaca fascicularis); human).
T6 construct: also called HEK293/mfNPR1 +100 nM hBNP
T6 sequence (P16860 103-134): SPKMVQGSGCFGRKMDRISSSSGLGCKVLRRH
As to the kind of experiment: ECL cell-binding immunoassay (MSD), HEK293/mfNPR1, +100 nM hBNP. The method, then:
as §1, §2
Turning to B1, the EC50 was found to be 0.42 nM.

Regarding B2, the concentration for a half-maximal effect (EC50) came out at 0.56 nM.

For B3, the EC50 was 0.92 nM.

As for B4, the EC50 is 1.7 nM.
